# Reference: patent US20010029022A1
# Tests used:
# [1] = target: CDK2 kinase complex (cyclin not given) (UniProt P24941); experiment: cell-based or functional assay
# [2] = target: cyclin A/CDK2 complex (UniProt P20248); experiment: cell-based or functional assay
substance,measurement,setting,value
GST-HPV16 E7 C91→W91 (from UniProt P03129 1-98),"% Control Activation of CDK2, Exp. 1",[1],81.7%
same,"% Control Activation of CDK2, Exp. 2",[1],78.7%
GST-HPV16 E7 ?34-37 (from UniProt P03129 1-33; P03129 38-98),% Control Activation of CDK2,[1],80%
GST-HPV16 E7 ?22-26 (from UniProt P03129 1-21; P03129 27-98),% Control Activation of CDK2,[1],85%
GST-16E7 (16-38) (from UniProt P08515 1-218; P03129 16-38),"induced kinase activity, percent of that by full length E7",[1],53%
GST-HPV16-E7(9-98) (from UniProt P03129 9-98),"activation of cyclinA/CDK2, percent of full length E7",[2],64%
GST-16E7(1-15) (from UniProt P03129 1-15),relative kinase activity compared to full length E7,[1],15%
GST-16E7(1-38) (from UniProt P03129 1-38),relative kinase activity compared to activity in the presence of full length E7,[1],72%
"GST-HPV16 E7 ?24, 26; ?31, 32 (from UniProt P03129 1-98)","% Control Activation of CDK2, Exp. 1",[1],88.2%
same,"% Control Activation of CDK2, Exp. 2",[1],95.6%
"GST-HPV16 E7 ?22-26, ?31-37 (from UniProt P03129 1-21; P03129 27-30; P03129 38-98)",% Control Activation of CDK2,[1],72%
GST-16E7(1-69) (from UniProt P03129 1-69),relative kinase activity compared to activity in the presence of full length E7,[1],82.5%
GST-HPV16 E7 ?13-15 (from UniProt P03129 1-12; P03129 16-98),% Control Activation of CDK2,[1],76%
GST-HPV16-E7(39-98) (from UniProt P03129 39-98),"activation of cyclinA/CDK2, percent of full length E7 (repeat experiment)",[2],18%
same,"activation of cyclinA/CDK2, percent of full length GST-HPV 16 E7",[2],28.6%
"GST-HPV16 E7 C24, E26→S24, D26 (from UniProt P03129 1-98)","% Control Activation of CDK2, Exp. 1",[1],86.7%
same,"% Control Activation of CDK2, Exp. 2",[1],81.3%
"GST-HPV16 E7 ?12; ?24, 26 (from UniProt P03129 1-98)","% Control Activation of CDK2, Exp. 1",[1],85.2%
same,"% Control Activation of CDK2, Exp. 2",[1],93.5%
GST-16E7(1-27) (from UniProt P03129 1-27),"CDK2 activation, percent of that of full length E7 (one experiment)",[1],28.6%
same,"CDK2 activation, percent of that of full length E7 (repeat experiment)",[1],52%
GST-16E7(1-87) (from UniProt P03129 1-87),relative kinase activity compared to activity in the presence of full length E7,[1],76.7%
GST-HPV16-E7(16-98) (from UniProt P03129 16-98),"activation of cyclinA/CDK2, percent of full length E7",[2],53%
GST-HPV16 E7 ?31-37 (from UniProt P03129 1-30; P03129 38-98),% Control Activation of CDK2,[1],80%
GST-16E7(1-48) (from UniProt P03129 1-48),relative kinase activity compared to activity in the presence of full length E7,[1],73.2%
GST-HPV16 E7 ?9-13 (from UniProt P03129 1-8; P03129 14-98),% Control Activation of CDK2,[1],90%
"GST-HPV16 E7 ?12; ?24, 26; ?31, 32 (from UniProt P03129 1-98)","% Control Activation of CDK2, Exp. 2",[1],83.1%
GST-HPV16 E7 M12→L12 (from UniProt P03129 1-98),"% Control Activation of CDK2, Exp. 1",[1],96.7%
GST-E7 (20-48) (from UniProt P03129 20-48),"induced kinase activity, percent of that by full length E7",[1],33%
"GST-HPV16 E7 ?9-13, ?A34-37 (from UniProt P03129 1-8; P03129 14-33; P03129 38-98)",% Control Activation of CDK2,[1],72%
"GST-HPV16 E7 S31, S32→G31, G32 (from UniProt P03129 1-98)","% Control Activation of CDK2, Exp. 1",[1],77.1%
"GST-HPV16 E7 ?24, 26; ?91 (from UniProt P03129 1-98)","% Control Activation of CDK2, Exp. 1",[1],69.4%
same,"% Control Activation of CDK2, Exp. 2",[1],86.4%
"GST-HPV16 E7 ?24, 26; ?31, 32; ?91 (from UniProt P03129 1-98)","% Control Activation of CDK2, Exp. 2",[1],70.6%
